Reference: publication PMC9482650, “Quantitative fragmentomics allow affinity mapping of interactomes” (Nature Communications, 2022)

T1: CARD11, Q9BXL7
T1 sequence (Q9BXL7 662-765, limits assumed, looked up): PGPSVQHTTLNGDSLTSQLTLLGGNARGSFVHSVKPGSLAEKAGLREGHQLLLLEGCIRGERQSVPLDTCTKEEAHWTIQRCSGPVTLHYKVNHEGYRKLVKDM

T2: FRMPD1, Q5SYB0
T2 sequence (Q5SYB0 52-145, limits assumed, looked up): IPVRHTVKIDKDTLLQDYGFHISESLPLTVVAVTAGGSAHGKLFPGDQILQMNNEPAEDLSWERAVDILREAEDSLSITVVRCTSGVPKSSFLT

T3: GRIP1_2, Q9Y3R0
T3 sequence (Q9Y3R0 145-248, limits assumed, looked up): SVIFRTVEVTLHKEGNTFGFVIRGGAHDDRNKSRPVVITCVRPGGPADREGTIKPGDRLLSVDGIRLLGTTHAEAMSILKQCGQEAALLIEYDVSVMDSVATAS

T4: HTRA4, P83105
T4 sequence (P83105 378-476, limits assumed, looked up): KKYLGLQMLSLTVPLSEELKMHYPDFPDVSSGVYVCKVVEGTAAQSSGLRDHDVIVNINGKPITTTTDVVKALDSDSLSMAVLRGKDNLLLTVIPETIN

T5: NHERF3_3, Q5T2W1
T5 sequence (Q5T2W1 238-333, limits assumed, looked up): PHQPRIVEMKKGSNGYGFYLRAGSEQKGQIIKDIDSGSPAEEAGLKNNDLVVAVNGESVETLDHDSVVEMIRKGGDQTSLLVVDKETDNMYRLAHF

T6: NHERF3_4, Q5T2W1
T6 sequence (Q5T2W1 373-468, limits assumed, looked up): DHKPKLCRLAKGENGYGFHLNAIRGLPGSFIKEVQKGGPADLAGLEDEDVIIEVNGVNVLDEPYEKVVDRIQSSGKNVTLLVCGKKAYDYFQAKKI

T7: PDZD2_2, O15018
T7 sequence (O15018 329-429, limits assumed, looked up): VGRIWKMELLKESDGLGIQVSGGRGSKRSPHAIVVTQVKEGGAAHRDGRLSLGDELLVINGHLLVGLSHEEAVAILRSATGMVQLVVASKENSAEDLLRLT

T8: SIPA1L2, Q9P2F8
T8 sequence (Q9P2F8 945-1036, limits assumed, looked up): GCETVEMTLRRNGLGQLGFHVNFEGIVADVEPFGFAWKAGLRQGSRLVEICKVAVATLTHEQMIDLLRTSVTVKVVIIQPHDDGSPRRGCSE

T9: SNTA1, Q13424
T9 sequence (Q13424 82-180, limits assumed, looked up): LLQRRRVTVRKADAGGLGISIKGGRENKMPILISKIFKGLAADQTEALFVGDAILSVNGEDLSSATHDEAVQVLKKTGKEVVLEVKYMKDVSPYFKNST

T10: SNTG1, Q9NSN8
T10 sequence (Q9NSN8 52-150, limits assumed, looked up): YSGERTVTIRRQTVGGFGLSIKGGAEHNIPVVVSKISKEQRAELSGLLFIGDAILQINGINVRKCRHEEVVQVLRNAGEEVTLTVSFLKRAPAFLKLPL

T11: TJP3_3, O95049
T11 sequence (O95049 375-456, limits assumed, looked up): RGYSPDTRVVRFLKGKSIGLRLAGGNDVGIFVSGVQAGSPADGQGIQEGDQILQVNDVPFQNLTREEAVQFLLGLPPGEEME

B1: TRAF7, Q6Q0C0 (peptide)
chain: VDSTVKVWTC
B2: CTNNA1, P35221 (peptide)
chain: LSEFKAMDSI
B3: GJD4, Q96KN9 (peptide)
chain: HLRARKSEWV
B4: ABCA7, Q8IZY2 (peptide)
chain: DDPSTAETVL
B5: BPIFA2, Q96DR5 (peptide)
chain: QHKTQLQTLI

Key:
Experiment in all cases: holdup assay
Design in all cases: key: below the threshold = too weak to quantify, mostly under pKd 3.1 to 4
Settings in all cases: plain residues with an end cap or a label only (N-terminal biotin on a linker: ado-ado)
ARHGEF12, Q9NZN5-2 = target: ARHGEF12, Q9NZN5-2
ARHGEF12, Q9NZN5-2, sequence (Q9NZN5 other isoform, or with tags, fused parts or gaps): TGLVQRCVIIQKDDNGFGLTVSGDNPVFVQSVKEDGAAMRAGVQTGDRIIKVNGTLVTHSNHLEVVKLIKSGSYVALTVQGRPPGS

CARD11, Q9BXL7 = target: T1, CARD11, Q9BXL7
DLG1_3, Q12959 = target: DLG1_3, Q12959
DLG1_3, Q12959, sequence (Q12959 457-571): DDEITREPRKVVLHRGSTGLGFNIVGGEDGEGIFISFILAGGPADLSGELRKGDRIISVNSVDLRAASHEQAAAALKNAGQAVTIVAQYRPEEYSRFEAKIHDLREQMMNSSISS

FRMPD1, Q5SYB0 = target: T2, FRMPD1, Q5SYB0
GIPC2, Q8TF65 = target: GIPC2, Q8TF65
GIPC2, Q8TF65, sequence (Q8TF65 112-203): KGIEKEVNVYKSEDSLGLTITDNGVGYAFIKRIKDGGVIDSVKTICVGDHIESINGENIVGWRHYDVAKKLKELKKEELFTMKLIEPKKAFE

GRIP1_2, Q9Y3R0 = target: T3, GRIP1_2, Q9Y3R0
GRIP2_4, Q9C0E4 = target: GRIP2_4, Q9C0E4
GRIP2_4, Q9C0E4, sequence (Q9C0E4 446-548): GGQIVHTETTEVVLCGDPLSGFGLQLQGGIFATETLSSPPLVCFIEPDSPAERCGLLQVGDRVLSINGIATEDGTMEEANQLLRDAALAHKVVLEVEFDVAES

HTRA1, Q92743 = target: HTRA1, Q92743
HTRA1, Q92743, sequence (Q92743 360-477): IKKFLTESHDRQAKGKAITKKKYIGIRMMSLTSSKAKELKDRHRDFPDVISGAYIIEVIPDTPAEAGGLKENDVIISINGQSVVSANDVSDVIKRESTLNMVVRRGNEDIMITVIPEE

HTRA4, P83105 = target: T4, HTRA4, P83105
Inadl_5, Q8NI35 = target: Inadl_5, Q8NI35
Inadl_5, Q8NI35, sequence (Q8NI35 673-780): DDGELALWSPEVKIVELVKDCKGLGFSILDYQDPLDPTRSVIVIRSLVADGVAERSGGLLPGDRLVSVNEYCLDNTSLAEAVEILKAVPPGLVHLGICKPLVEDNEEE

Inadl_6, Q8NI35 = target: Inadl_6, Q8NI35
Inadl_6, Q8NI35, sequence (Q8NI35 1058-1167): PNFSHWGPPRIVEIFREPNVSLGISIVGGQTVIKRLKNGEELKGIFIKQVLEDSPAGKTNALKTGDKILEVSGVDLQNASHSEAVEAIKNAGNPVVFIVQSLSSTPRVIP

LDB3, O75112 = target: LDB3, O75112
LDB3, O75112, sequence (O75112 1-94): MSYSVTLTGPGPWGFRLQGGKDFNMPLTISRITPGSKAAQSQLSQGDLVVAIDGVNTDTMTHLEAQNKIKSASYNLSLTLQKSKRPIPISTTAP

LNX1_3, Q8TBB1 = target: LNX1_3, Q8TBB1
LNX1_3, Q8TBB1, sequence (Q8TBB1 500-596): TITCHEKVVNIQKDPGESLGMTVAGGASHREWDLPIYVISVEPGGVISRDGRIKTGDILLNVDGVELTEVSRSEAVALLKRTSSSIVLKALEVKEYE

MAGI2_3, Q86UL8 = target: MAGI2_3, Q86UL8
MAGI2_3, Q86UL8, sequence (Q86UL8 600-682): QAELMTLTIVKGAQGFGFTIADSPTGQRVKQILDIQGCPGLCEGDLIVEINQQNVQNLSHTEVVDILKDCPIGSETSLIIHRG

MAGI2_4, Q86UL8 = target: MAGI2_4, Q86UL8
MAGI2_4, Q86UL8, sequence (Q86UL8 772-865): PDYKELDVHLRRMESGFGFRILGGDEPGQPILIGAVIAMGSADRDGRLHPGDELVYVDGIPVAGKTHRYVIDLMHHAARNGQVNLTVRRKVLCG

MAGI2_5, Q86UL8 = target: MAGI2_5, Q86UL8
MAGI2_5, Q86UL8, sequence (Q86UL8 915-1017): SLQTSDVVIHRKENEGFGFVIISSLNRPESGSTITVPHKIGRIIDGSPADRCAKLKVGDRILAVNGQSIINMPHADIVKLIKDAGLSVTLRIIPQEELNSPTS

NHERF3_3, Q5T2W1 = target: T5, NHERF3_3, Q5T2W1
NHERF3_4, Q5T2W1 = target: T6, NHERF3_4, Q5T2W1
NHERF4_2, Q86UT5 = target: NHERF4_2, Q86UT5
NHERF4_2, Q86UT5, sequence (Q86UT5 220-308): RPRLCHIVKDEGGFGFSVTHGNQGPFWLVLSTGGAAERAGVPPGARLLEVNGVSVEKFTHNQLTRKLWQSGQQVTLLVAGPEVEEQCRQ

PDZD2_2, O15018 = target: T7, PDZD2_2, O15018
PICK1, Q9NRD5 = target: PICK1, Q9NRD5
PICK1, Q9NRD5, sequence (Q9NRD5 17-115): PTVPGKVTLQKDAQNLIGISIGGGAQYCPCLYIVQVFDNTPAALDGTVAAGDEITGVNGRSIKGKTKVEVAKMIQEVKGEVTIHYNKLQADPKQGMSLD

PTPN3, P26045 = target: PTPN3, P26045
PTPN3, P26045, sequence (P26045 505-587): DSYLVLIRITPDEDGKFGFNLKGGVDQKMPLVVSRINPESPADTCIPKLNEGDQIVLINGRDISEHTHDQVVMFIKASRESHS

SCRIB_2, Q14160 = target: SCRIB_2, Q14160
SCRIB_2, Q14160, sequence (Q14160 857-960): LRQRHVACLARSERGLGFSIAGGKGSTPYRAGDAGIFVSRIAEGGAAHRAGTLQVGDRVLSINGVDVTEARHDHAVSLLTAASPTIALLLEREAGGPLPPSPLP

SIPA1L2, Q9P2F8 = target: T8, SIPA1L2, Q9P2F8
SNTA1, Q13424 = target: T9, SNTA1, Q13424
SNTG1, Q9NSN8 = target: T10, SNTG1, Q9NSN8
TJP3_3, O95049 = target: T11, TJP3_3, O95049

Binder | pKd (ARHGEF12, Q9NZN5-2) | pKd (CARD11, Q9BXL7) | pKd (DLG1_3, Q12959) | pKd (FRMPD1, Q5SYB0) | pKd (GIPC2, Q8TF65) | pKd (GRIP1_2, Q9Y3R0) | pKd (GRIP2_4, Q9C0E4) | pKd (HTRA1, Q92743) | pKd (HTRA4, P83105) | pKd (Inadl_5, Q8NI35) | pKd (Inadl_6, Q8NI35) | pKd (LDB3, O75112) | pKd (LNX1_3, Q8TBB1) | pKd (MAGI2_3, Q86UL8) | pKd (MAGI2_4, Q86UL8) | pKd (MAGI2_5, Q86UL8) | pKd (NHERF3_3, Q5T2W1) | pKd (NHERF3_4, Q5T2W1) | pKd (NHERF4_2, Q86UT5) | pKd (PDZD2_2, O15018) | further results
B1 | 3.5 | below the threshold | below the threshold | below the threshold | below the threshold | below the threshold | below the threshold | 5.61 | 4.14 | below the threshold | below the threshold | below the threshold | 3.8 | below the threshold | below the threshold | below the threshold | 3.48 | below the threshold | below the threshold | 4.27 | pKd (PICK1, Q9NRD5): below the threshold; pKd (PTPN3, P26045): 4.13; pKd (SCRIB_2, Q14160): below the threshold; pKd (SIPA1L2, Q9P2F8): below the threshold; pKd (SNTA1, Q13424): below the threshold; pKd (SNTG1, Q9NSN8): 3.61; pKd (TJP3_3, O95049): below the threshold
B2 | below the threshold | below the threshold | below the threshold | below the threshold | below the threshold | below the threshold | below the threshold | below the threshold | 3.85 | below the threshold | below the threshold | below the threshold | below the threshold | below the threshold | below the threshold | below the threshold | below the threshold | below the threshold | below the threshold | below the threshold | pKd (PICK1, Q9NRD5): 4.08; pKd (PTPN3, P26045): 3.97; pKd (SCRIB_2, Q14160): below the threshold; pKd (SIPA1L2, Q9P2F8): below the threshold; pKd (SNTA1, Q13424): below the threshold; pKd (SNTG1, Q9NSN8): below the threshold; pKd (TJP3_3, O95049): below the threshold
B3 | below the threshold | below the threshold | below the threshold | below the threshold | below the threshold | below the threshold | below the threshold | 4.38 | 4.51 | 5.11 | below the threshold | below the threshold | below the threshold | below the threshold | 3.71 | below the threshold | below the threshold | below the threshold | below the threshold | 5.81 | pKd (PICK1, Q9NRD5): below the threshold; pKd (PTPN3, P26045): 3.99; pKd (SCRIB_2, Q14160): below the threshold; pKd (SIPA1L2, Q9P2F8): below the threshold; pKd (SNTA1, Q13424): below the threshold; pKd (SNTG1, Q9NSN8): 3.6; pKd (TJP3_3, O95049): 4.63
B4 | 4.63 | below the threshold | below the threshold | below the threshold | below the threshold | below the threshold | below the threshold | 4.64 | below the threshold | below the threshold | 3.98 | below the threshold | below the threshold | 3.71 | below the threshold | 4.27 | below the threshold | below the threshold | below the threshold | below the threshold | pKd (PICK1, Q9NRD5): below the threshold; pKd (PTPN3, P26045): 4.83; pKd (SCRIB_2, Q14160): below the threshold; pKd (SIPA1L2, Q9P2F8): below the threshold; pKd (SNTA1, Q13424): 4.71; pKd (SNTG1, Q9NSN8): 3.66; pKd (TJP3_3, O95049): below the threshold
B5 | 4.33 | below the threshold | 3.68 | below the threshold | 3.49 | below the threshold | below the threshold | 4.06 | below the threshold | below the threshold | 3.56 | below the threshold | below the threshold | below the threshold | 4.05 | 4.78 | below the threshold | 3.48 | below the threshold | 4.25 | pKd (PICK1, Q9NRD5): below the threshold; pKd (PTPN3, P26045): 3.99; pKd (SCRIB_2, Q14160): below the threshold; pKd (SIPA1L2, Q9P2F8): below the threshold; pKd (SNTA1, Q13424): below the threshold; pKd (SNTG1, Q9NSN8): 3.47; pKd (TJP3_3, O95049): below the threshold
